Data taken from patent publication US20150344570A1 (published 2015).

T1: FcγRIIa R (FcγRIIa, allotype with Arg at position 131), extracellular domain with C-terminal His tag (human, UniProt P12318 34-217)
T1 construct: extracellular domain; also called FcγRIIa R type; 2aR
T1 sequence (looked up): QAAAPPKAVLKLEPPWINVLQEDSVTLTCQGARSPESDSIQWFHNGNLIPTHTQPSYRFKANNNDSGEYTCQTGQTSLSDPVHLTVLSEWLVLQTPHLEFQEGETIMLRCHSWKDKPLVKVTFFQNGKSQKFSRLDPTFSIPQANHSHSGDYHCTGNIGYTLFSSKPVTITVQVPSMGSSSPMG

B1: GpH7-B3 variant S337_04F/GpL16-k0 (antibody, human IgG1, kappa)
heavy: not shown
light: DIVMTQSPLSLPVTPGEPASISCQASESLVHSNRNTYLHWYLQKPGQSPQLLIYKVSNRFSGVPDRFSGSGSGTDFTLKISRVEAEDVGVYYCSQNTHVPPTFGQGTKVEIERTVAAPSVFIFPPSDEQLKSGTASVVCLLNNFYPREAKVQWKVDNALQSGNSQESVTEQDSKDSTYSLSSTLTLSKADYEKHKVYACEVTHQGLSSPVTKSFNRGEC
notes: also called Ho Ab
B2: GpH7-A5/GpH7-B3 variant S337_02A/GpL16-k0 (antibody, human IgG1, kappa)
heavy 1: not shown
heavy 2: not shown
light: B1 light
notes: also called He Ab
B3: GpH7-B3 variant Y296_19Q/GpL16-k0 (antibody, human IgG1, kappa)
heavy: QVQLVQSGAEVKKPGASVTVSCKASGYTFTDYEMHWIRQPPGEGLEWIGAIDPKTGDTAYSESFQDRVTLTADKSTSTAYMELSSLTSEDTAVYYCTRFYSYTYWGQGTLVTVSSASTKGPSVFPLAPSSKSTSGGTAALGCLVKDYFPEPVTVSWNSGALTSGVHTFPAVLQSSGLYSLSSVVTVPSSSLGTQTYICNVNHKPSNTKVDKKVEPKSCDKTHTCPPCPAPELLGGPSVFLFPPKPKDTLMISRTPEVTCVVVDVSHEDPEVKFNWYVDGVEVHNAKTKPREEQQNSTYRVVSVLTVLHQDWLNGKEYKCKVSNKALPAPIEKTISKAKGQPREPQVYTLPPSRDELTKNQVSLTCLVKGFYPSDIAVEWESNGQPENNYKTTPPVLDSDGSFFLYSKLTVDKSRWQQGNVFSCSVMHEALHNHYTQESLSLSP
light: B1 light
notes: also called Ho Ab
B4: GpH7-B3 variant S337_15Y/GpL16-k0 (antibody, human IgG1, kappa)
heavy: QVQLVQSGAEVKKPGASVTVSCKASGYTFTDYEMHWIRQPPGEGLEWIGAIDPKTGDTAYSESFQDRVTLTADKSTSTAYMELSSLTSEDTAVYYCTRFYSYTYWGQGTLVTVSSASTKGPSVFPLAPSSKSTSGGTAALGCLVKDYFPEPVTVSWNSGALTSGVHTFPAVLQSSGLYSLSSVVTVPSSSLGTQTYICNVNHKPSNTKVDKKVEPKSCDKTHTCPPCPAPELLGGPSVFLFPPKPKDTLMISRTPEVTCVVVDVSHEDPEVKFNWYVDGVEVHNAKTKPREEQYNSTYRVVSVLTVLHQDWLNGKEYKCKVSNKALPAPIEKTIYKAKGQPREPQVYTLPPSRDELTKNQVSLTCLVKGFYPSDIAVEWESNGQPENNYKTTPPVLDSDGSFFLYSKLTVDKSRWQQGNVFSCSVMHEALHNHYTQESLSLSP
light: B1 light
notes: also called Ho Ab
B5: GpH7-A5/GpH7-B3 variant P331_15Y/GpL16-k0 (antibody, human IgG1, kappa)
heavy 1: not shown
heavy 2: not shown
light: B1 light
notes: also called He Ab
B6: GpH7-B3 variant S337_10E/GpL16-k0 (antibody, human IgG1, kappa)
heavy: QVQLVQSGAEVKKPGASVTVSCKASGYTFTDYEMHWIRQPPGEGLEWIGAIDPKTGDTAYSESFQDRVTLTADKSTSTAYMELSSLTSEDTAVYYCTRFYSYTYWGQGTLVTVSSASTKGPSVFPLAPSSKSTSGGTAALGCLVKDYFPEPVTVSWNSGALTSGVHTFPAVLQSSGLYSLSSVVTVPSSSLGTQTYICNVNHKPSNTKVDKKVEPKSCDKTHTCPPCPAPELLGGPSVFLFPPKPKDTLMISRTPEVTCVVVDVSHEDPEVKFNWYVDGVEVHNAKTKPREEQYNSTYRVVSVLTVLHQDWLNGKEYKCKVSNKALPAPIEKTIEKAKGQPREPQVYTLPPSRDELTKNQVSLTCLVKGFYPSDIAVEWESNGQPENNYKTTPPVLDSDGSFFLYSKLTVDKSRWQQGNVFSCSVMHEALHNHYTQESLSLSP
light: B1 light
notes: also called Ho Ab
B7: GpH7-B3 variant S337_07I/GpL16-k0 (antibody, human IgG1, kappa)
heavy: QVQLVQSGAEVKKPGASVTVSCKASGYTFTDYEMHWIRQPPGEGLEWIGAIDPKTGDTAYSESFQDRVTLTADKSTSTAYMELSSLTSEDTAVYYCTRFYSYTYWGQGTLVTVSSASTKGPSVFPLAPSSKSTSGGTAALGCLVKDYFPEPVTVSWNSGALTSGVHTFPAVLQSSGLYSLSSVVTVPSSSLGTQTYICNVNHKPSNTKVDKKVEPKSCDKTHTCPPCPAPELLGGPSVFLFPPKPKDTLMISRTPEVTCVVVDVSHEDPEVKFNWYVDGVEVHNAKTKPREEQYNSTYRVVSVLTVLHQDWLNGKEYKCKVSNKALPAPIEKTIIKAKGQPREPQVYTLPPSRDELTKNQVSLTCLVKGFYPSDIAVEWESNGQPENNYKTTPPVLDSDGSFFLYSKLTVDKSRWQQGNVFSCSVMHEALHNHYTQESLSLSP
light: B1 light
notes: also called Ho Ab
B8: GpH7-B3 variant Y296_14T/GpL16-k0 (antibody, human IgG1, kappa)
heavy: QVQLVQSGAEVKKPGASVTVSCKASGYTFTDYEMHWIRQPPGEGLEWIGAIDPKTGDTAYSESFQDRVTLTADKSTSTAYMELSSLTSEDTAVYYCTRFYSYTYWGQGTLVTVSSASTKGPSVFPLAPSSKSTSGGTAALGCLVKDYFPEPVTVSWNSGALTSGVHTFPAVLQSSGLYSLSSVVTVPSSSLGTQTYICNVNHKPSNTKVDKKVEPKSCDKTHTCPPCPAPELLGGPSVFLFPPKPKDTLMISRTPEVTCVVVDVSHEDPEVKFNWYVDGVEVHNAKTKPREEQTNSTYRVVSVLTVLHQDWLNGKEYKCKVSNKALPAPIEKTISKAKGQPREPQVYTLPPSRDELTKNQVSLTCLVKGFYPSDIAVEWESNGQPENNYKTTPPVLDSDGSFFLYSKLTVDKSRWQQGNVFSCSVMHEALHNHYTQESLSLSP
light: B1 light
notes: also called Ho Ab
B9: GpH7-B3 variant S337_09D/GpL16-k0 (antibody, human IgG1, kappa)
heavy: not shown
light: B1 light
notes: also called Ho Ab
B10: GpH7-B3 variant S337_12R/GpL16-k0 (antibody, human IgG1, kappa)
heavy: not shown
light: B1 light
notes: also called Ho Ab
B11: GpH7-A5/GpH7-B3 variant P331_14T/GpL16-k0 (antibody, human IgG1, kappa)
heavy 1: not shown
heavy 2: not shown
light: B1 light
notes: also called He Ab
B12: GpH7-A5/GpH7-B3 variant P331_20W/GpL16-k0 (antibody, human IgG1, kappa)
heavy 1: not shown
heavy 2: not shown
light: B1 light
notes: also called He Ab
B13: GpH7-B3 variant S337_18N/GpL16-k0 (antibody, human IgG1, kappa)
heavy: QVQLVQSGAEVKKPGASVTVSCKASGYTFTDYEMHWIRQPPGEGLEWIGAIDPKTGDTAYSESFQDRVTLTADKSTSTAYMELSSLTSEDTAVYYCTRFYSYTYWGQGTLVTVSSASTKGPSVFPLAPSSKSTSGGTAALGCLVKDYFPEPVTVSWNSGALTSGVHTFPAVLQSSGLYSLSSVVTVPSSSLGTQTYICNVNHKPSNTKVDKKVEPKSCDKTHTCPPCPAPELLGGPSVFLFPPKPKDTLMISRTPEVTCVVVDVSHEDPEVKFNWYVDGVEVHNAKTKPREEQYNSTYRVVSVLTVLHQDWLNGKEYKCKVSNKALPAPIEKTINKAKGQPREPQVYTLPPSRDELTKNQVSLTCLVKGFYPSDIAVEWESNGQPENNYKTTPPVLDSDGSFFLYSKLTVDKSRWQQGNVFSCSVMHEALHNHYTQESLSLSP
light: B1 light
notes: also called Ho Ab
B14: GpH7-B3 variant S337_11K/GpL16-k0 (antibody, human IgG1, kappa)
heavy: not shown
light: B1 light
notes: also called Ho Ab
B15: GpH7-B3 variant Y296_20W/GpL16-k0 (antibody, human IgG1, kappa)
heavy: not shown
light: B1 light
notes: also called Ho Ab
B16: GpH7-B3 variant S337_08L/GpL16-k0 (antibody, human IgG1, kappa)
heavy: not shown
light: B1 light
notes: also called Ho Ab
B17: GpH7-B3 variant Y296_13S/GpL16-k0 (antibody, human IgG1, kappa)
heavy: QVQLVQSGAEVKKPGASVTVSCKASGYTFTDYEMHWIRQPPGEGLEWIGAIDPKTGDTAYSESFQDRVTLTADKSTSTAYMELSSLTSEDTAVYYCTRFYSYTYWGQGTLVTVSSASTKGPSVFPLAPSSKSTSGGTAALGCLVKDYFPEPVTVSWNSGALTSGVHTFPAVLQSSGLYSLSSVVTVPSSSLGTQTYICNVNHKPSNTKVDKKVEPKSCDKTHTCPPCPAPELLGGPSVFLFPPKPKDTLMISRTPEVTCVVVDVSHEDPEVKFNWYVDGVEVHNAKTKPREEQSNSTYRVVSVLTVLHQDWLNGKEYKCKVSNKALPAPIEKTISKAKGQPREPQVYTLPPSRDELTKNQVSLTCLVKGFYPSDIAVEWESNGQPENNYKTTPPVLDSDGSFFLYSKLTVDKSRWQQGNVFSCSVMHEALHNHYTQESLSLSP
light: B1 light
notes: also called Ho Ab
B18: GpH7-A5/GpH7-B3 variant P331_09D/GpL16-k0 (antibody, human IgG1, kappa)
heavy 1: not shown
heavy 2: not shown
light: B1 light
notes: also called He Ab
B19: GpH7-B3 variant T335_15Y/GpL16-k0 (antibody, human IgG1, kappa)
heavy: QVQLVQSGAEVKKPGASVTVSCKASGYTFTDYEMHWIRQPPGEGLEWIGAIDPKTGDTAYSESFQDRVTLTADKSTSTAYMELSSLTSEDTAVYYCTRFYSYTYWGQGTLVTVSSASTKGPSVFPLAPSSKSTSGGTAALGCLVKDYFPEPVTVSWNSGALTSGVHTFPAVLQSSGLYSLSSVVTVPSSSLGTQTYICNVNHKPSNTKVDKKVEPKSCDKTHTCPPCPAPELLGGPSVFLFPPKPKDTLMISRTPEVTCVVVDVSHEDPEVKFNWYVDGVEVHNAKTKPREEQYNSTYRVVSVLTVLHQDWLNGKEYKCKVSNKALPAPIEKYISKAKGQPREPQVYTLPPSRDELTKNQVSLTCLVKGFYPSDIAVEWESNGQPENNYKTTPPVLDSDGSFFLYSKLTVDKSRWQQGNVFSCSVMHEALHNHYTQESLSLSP
light: B1 light
notes: also called Ho Ab
B20: GpH7-B3 variant S337_19Q/GpL16-k0 (antibody, human IgG1, kappa)
heavy: not shown
light: B1 light
notes: also called Ho Ab
B21: GpH7-B3 variant S337_16H/GpL16-k0 (antibody, human IgG1, kappa)
heavy: not shown
light: B1 light
notes: also called Ho Ab
B22: GpH7-B3 variant T335_12R/GpL16-k0 (antibody, human IgG1, kappa)
heavy: not shown
light: B1 light
notes: also called Ho Ab
B23: GpH7-B3 variant Y296_09D/GpL16-k0 (antibody, human IgG1, kappa)
heavy: not shown
light: B1 light
notes: also called Ho Ab
B24: GpH7-B3 variant T335_02A/GpL16-k0 (antibody, human IgG1, kappa)
heavy: not shown
light: B1 light
notes: also called Ho Ab
B25: GpH7-B3 variant T335_10E/GpL16-k0 (antibody, human IgG1, kappa)
heavy: not shown
light: B1 light
notes: also called Ho Ab
B26: GpH7-B3 variant Y296_07I/GpL16-k0 (antibody, human IgG1, kappa)
heavy: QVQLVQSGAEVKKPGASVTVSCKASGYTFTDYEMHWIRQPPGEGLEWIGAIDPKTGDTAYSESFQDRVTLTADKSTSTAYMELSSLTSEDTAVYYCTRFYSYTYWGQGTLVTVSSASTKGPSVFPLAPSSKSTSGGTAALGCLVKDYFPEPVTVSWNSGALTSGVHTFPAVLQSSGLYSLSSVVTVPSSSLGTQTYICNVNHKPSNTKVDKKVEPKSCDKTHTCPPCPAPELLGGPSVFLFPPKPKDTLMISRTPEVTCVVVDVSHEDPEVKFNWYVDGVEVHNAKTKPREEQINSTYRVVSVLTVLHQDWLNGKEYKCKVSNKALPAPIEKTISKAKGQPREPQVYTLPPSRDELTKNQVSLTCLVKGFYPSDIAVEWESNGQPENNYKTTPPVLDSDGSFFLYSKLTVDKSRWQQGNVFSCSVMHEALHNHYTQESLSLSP
light: B1 light
notes: also called Ho Ab
B27: GpH7-B3 variant Y296_10E/GpL16-k0 (antibody, human IgG1, kappa)
heavy: not shown
light: B1 light
notes: also called Ho Ab
B28: GpH7-B3 variant V266_06M/GpL16-k0 (antibody, human IgG1, kappa)
heavy: not shown
light: B1 light
notes: also called Ho Ab
B29: GpH7-B3 variant S337_06M/GpL16-k0 (antibody, human IgG1, kappa)
heavy: not shown
light: B1 light
notes: also called Ho Ab
B30: GpH7-B3 variant Y300_18N/GpL16-k0 (antibody, human IgG1, kappa)
heavy: not shown
light: B1 light
notes: also called Ho Ab
B31: GpH7-B3 variant T335_13S/GpL16-k0 (antibody, human IgG1, kappa)
heavy: not shown
light: B1 light
notes: also called Ho Ab
B32: GpH7-B3 variant T335_18N/GpL16-k0 (antibody, human IgG1, kappa)
heavy: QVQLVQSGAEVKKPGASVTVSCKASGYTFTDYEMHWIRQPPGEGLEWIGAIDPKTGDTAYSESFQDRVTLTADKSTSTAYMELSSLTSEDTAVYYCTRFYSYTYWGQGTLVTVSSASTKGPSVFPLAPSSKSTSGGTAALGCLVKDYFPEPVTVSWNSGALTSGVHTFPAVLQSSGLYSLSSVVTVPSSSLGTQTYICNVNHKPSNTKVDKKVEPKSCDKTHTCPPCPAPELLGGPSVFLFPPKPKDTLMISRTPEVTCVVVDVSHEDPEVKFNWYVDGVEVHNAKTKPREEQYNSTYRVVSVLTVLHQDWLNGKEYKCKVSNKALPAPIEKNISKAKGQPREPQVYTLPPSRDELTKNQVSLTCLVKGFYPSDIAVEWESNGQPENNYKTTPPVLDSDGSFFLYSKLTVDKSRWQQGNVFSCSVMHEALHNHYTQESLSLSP
light: B1 light
notes: also called Ho Ab
B33: GpH7-B3 variant Y296_04F/GpL16-k0 (antibody, human IgG1, kappa)
heavy: not shown
light: B1 light
notes: also called Ho Ab
B34: GpH7-A5/GpH7-B3 variant P331_07I/GpL16-k0 (antibody, human IgG1, kappa)
heavy 1: not shown
heavy 2: not shown
light: B1 light
notes: also called He Ab
B35: GpH7-B3 variant S337_20W/GpL16-k0 (antibody, human IgG1, kappa)
heavy: not shown
light: B1 light
notes: also called Ho Ab
B36: GpH7-A5/GpH7-B3 variant P331_10E/GpL16-k0 (antibody, human IgG1, kappa)
heavy 1: not shown
heavy 2: not shown
light: B1 light
notes: also called He Ab
B37: GpH7-A5/GpH7-B3 variant P331_18N/GpL16-k0 (antibody, human IgG1, kappa)
heavy 1: not shown
heavy 2: not shown
light: B1 light
notes: also called He Ab
B38: GpH7-B3 variant Y296_16H/GpL16-k0 (antibody, human IgG1, kappa)
heavy: not shown
light: B1 light
notes: also called Ho Ab
B39: GpH7-A5/GpH7-B3 variant P331_13S/GpL16-k0 (antibody, human IgG1, kappa)
heavy 1: not shown
heavy 2: not shown
light: B1 light
notes: also called He Ab
B40: GpH7-B3 variant T335_01G/GpL16-k0 (antibody, human IgG1, kappa)
heavy: not shown
light: B1 light
notes: also called Ho Ab
B41: GpH7-B3 variant T335_07I/GpL16-k0 (antibody, human IgG1, kappa)
heavy: not shown
light: B1 light
notes: also called Ho Ab
B42: GpH7-B3 variant Y296_06M/GpL16-k0 (antibody, human IgG1, kappa)
heavy: not shown
light: B1 light
notes: also called Ho Ab
B43: GpH7-A5/GpH7-B3 variant P331_16H/GpL16-k0 (antibody, human IgG1, kappa)
heavy 1: not shown
heavy 2: not shown
light: B1 light
notes: also called He Ab
B44: GpH7-A5/GpH7-B3 variant P331_06M/GpL16-k0 (antibody, human IgG1, kappa)
heavy 1: not shown
heavy 2: not shown
light: B1 light
notes: also called He Ab
B45: GpH7-B3 variant T335_16H/GpL16-k0 (antibody, human IgG1, kappa)
heavy: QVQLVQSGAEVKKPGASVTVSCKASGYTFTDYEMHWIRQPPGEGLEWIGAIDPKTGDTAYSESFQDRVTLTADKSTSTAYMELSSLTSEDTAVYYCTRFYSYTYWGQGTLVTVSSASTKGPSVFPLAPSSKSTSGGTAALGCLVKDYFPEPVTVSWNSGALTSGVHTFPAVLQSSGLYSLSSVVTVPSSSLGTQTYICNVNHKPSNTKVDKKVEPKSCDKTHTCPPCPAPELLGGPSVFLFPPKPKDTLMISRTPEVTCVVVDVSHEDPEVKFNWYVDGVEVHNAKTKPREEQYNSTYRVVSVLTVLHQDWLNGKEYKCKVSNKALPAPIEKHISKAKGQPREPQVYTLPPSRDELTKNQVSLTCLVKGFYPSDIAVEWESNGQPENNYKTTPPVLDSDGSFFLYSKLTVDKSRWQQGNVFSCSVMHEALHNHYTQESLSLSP
light: B1 light
notes: also called Ho Ab
B46: GpH7-B3 variant T335_20W/GpL16-k0 (antibody, human IgG1, kappa)
heavy: not shown
light: B1 light
notes: also called Ho Ab
B47: GpH7-B3 variant T335_05P/GpL16-k0 (antibody, human IgG1, kappa)
heavy: not shown
light: B1 light
notes: also called Ho Ab
B48: GpH7-B3 variant Y296_18N/GpL16-k0 (antibody, human IgG1, kappa)
heavy: not shown
light: B1 light
notes: also called Ho Ab
B49: GpH7-A5/GpH7-B3 variant P331_08L/GpL16-k0 (antibody, human IgG1, kappa)
heavy 1: not shown
heavy 2: not shown
light: B1 light
notes: also called He Ab
B50: GpH7-B3 variant T335_19Q/GpL16-k0 (antibody, human IgG1, kappa)
heavy: not shown
light: B1 light
notes: also called Ho Ab
B51: GpH7-A5/GpH7-B3 variant Q295_06M/GpL16-k0 (antibody, human IgG1, kappa)
heavy 1: not shown
heavy 2: not shown
light: B1 light
notes: also called He Ab

Molecular target: T1, FcγRIIa R (FcγRIIa, allotype with Arg …)
Assay: SPR (Biacore), antibody captured on antigen peptide chip, FcγR as analyte; relative binding
Description: Analysis of interaction between objective antibody and the FcγR was carried out using Biacore T100 (GE Healthcare). HBS-EP+ (GE Healthcare) was used as the running buffer, and the measurement temperature was set to 25° C. Chips produced by immobilizing the antigen peptide by the amine coupling method to a Series S Sencor Chip CM5 (GE Healthcare), or alternatively, chips produced by allowing preliminarily biotinylated antigen peptides to interact with and immobilize onto a Series S Sensor Chip SA (certified) (GE Healthcare) were used. Antibodies of interest were captured onto an antigen peptide-immobilized chip, and allowed to interact to each FcγR diluted with running buffer. To regenerate and repeatedly use the chip, the antibodies captured on the chip were washed off by reacting 10 mM glycine-HCl, pH 1.5.

Binder	Ho/Con_2aR	He/Con_2aR
B1	98.3 % of GpH7-B3/GpL16-k0 (=100)	
B2		105 % of GpH7-A5/GpH7-B3/GpL16-k0 (=100)
B3	88.9 % of GpH7-B3/GpL16-k0 (=100)	
B4	100 % of GpH7-B3/GpL16-k0 (=100)	
B5		112 % of GpH7-A5/GpH7-B3/GpL16-k0 (=100)
B6	110 % of GpH7-B3/GpL16-k0 (=100)	
B7	103 % of GpH7-B3/GpL16-k0 (=100)	
B8	90.3 % of GpH7-B3/GpL16-k0 (=100)	
B9	114 % of GpH7-B3/GpL16-k0 (=100)	
B10	100 % of GpH7-B3/GpL16-k0 (=100)	
B11		104 % of GpH7-A5/GpH7-B3/GpL16-k0 (=100)
B12		110 % of GpH7-A5/GpH7-B3/GpL16-k0 (=100)
B13	103 % of GpH7-B3/GpL16-k0 (=100)	
B14	94.6 % of GpH7-B3/GpL16-k0 (=100)	
B15	107 % of GpH7-B3/GpL16-k0 (=100)	
B16	99.4 % of GpH7-B3/GpL16-k0 (=100)	
B17	88.1 % of GpH7-B3/GpL16-k0 (=100)	
B18		102 % of GpH7-A5/GpH7-B3/GpL16-k0 (=100)
B19	107 % of GpH7-B3/GpL16-k0 (=100)	
B20	102 % of GpH7-B3/GpL16-k0 (=100)	
B21	107 % of GpH7-B3/GpL16-k0 (=100)	
B22	94 % of GpH7-B3/GpL16-k0 (=100)	
B23	94.5 % of GpH7-B3/GpL16-k0 (=100)	
B24	102 % of GpH7-B3/GpL16-k0 (=100)	
B25	109 % of GpH7-B3/GpL16-k0 (=100)	
B26	83.1 % of GpH7-B3/GpL16-k0 (=100)	

Binder	Ho/Con_2aR	He/Con_2aR
B27	90.2 % of GpH7-B3/GpL16-k0 (=100)	
B28	146 % of GpH7-B3/GpL16-k0 (=100)	
B29	101 % of GpH7-B3/GpL16-k0 (=100)	
B30	87.6 % of GpH7-B3/GpL16-k0 (=100)	
B31	102 % of GpH7-B3/GpL16-k0 (=100)	
B32	100 % of GpH7-B3/GpL16-k0 (=100)	
B33	106 % of GpH7-B3/GpL16-k0 (=100)	
B34		110 % of GpH7-A5/GpH7-B3/GpL16-k0 (=100)
B35	105 % of GpH7-B3/GpL16-k0 (=100)	
B36		113 % of GpH7-A5/GpH7-B3/GpL16-k0 (=100)
B37		105 % of GpH7-A5/GpH7-B3/GpL16-k0 (=100)
B38	89.5 % of GpH7-B3/GpL16-k0 (=100)	
B39		105 % of GpH7-A5/GpH7-B3/GpL16-k0 (=100)
B40	97.7 % of GpH7-B3/GpL16-k0 (=100)	
B41	107 % of GpH7-B3/GpL16-k0 (=100)	
B42	84 % of GpH7-B3/GpL16-k0 (=100)	
B43		114 % of GpH7-A5/GpH7-B3/GpL16-k0 (=100)
B44		106 % of GpH7-A5/GpH7-B3/GpL16-k0 (=100)
B45	102 % of GpH7-B3/GpL16-k0 (=100)	
B46	101 % of GpH7-B3/GpL16-k0 (=100)	
B47	104 % of GpH7-B3/GpL16-k0 (=100)	
B48	93.7 % of GpH7-B3/GpL16-k0 (=100)	
B49		102 % of GpH7-A5/GpH7-B3/GpL16-k0 (=100)
B50	102 % of GpH7-B3/GpL16-k0 (=100)	
B51		102 % of GpH7-A5/GpH7-B3/GpL16-k0 (=100)
